Consider six variants from IntAct's records for PubMed 16628219.

First the molecules themselves.
B1: Ras GTPase-activating-like protein IQGAP1 (Mus musculus), Q9JKF1 (parent)
chain: MSAAEEVDGLGVVRPHYGSVLDNERLTAEEMDERRRQNVAYEYLCHLEEAKRWMEACLGEDLPPTTELEEGLRNGVYLAKLGNFFSPKVVSLKKIYDREQTRYKATGLHFRHTDNVIQWLNAMDEIGLPKIFYPETTDIYDRKNMPRCIYCIHALSLYLFKLGLAPQIQDLYGKVDFTEEEINNMKIELEKYGIQMPAFSKIGGILANELSVDEAALHAAVIAINEAIDRRVAADTFTALKNPNAMLVNLEEGLAPTYQDVLYQAKQDKMTNAKNRTENSDRERDVYEELLTQAEIQGNVNKVNTSSALANISLALEQGCAVTLLKALQSLALGLRGLQTQNSDWYMKQLQSDLQQKRQSGQTDPLQKEEVQAGVDAANSAAQQYQRRLAAVAAINAAIQKGIAEKTVLELMNPEAQLPQVYPFAADLYQKELATLQQQSPEHSLTHPELTVAVEMLSSVALINRALESGDMTTVWKQLSSSVTGLTNIEEENCQRYLDELMKLKAQAHAENNAFITWNDIQACVDHVNLVVHEEHERILAIGLINEALDEGDAQKTLQALQIPAAKLEGVLAEVAQHYQDTLIRAKREKAQETQDESAVLWLDEIQGGIWQSNKDTQEAQRFALGISAINEAVDSGDVGRTLSALRSPDVGLYGVIPECGETYQSDLAEAKKKRLAAGDNNSKWVKHWVKGGYHYYHNLETQAGGWAEPPDFVQNSVQLSREEIQSSISGVTAAYNREQLWLANEGLITKLQACCRGYLVRQEFRSRMNFLKKQIPAITCIQSQWRGYKQKKAYQDRLAYLHSHKDEVVKIQSLARMHQARKRYRDRLQYFRDHINDIIKIQAFIRANKARDDYKTLINAEDPPMIVVRKFVHLLDQSDQDFQEELDLMKMREEVITLIRSNQQLENDLNLMDIKIGLLVKNKITLQDVVSHSKKLTKKNKEQLSDMMMINKQKGGLKALSKEKREKLEAYQHLFYLLQTNPTYLAKLIFQMPQNKSTKFMDSVIFTLYNYASNQREEYLLLRLFQTALQEEIKSKVDQIQEIVTGNPTVIKMVVSFNRGARGQNALRQILAPVVKEIMDDKSLNIKTDPVDIYKSWVNQMESQTGEASKLPYDVTPEQALSHEEVKTRLDNSIRNMRAVTDKFLSAIVSSVDKIPYGMRFIAKVLKDSLHEKFPDAGEDELLKIIGNLLYYRYMNPAIVAPDAFDIIDLSAGGQLTTDQRRNLGSIAKMLQHAASNKMFLGDNAHLSIINEYLSQSYQKFRRFFQVACDVPELQDKFNVDEYSDLVTLTKPVIYISIGEIINTHTLLLDHQDAIAPEHNDPIHELLDDLGEVPTIESLIGESCGNSNDPNKEALAKTEVSLTLTNKFDVPGDENAEMDARTILLNTKRLIVDVIRFQPGETLTEILETPATNEQEAEHQRAMQRRAIRDAKTPDKMKKSKPMKEDNNLSLQEKKEKIQTGLKKLTELGTVDPKNRYQELINDIAKDIRNQRRYRQRRKAELVKLQQTYSALNSKATFYGEQVDYYKSYIKTCLDNLASKGKVSKKPREMKGKKSKKISLKYTAARLHEKGVLLEIEDLQANQFKNVIFEIGPTEEVGDFEVKAKFMGVQMETFMLHYQDLLQLQYEGVAVMKLFDRAKVNVNLLIFLLNKKFYGK
B2: Gag polyprotein (Moloney murine leukemia virus (isolate Shinnick) (MoMLV)), P03332 (parent)
chain: MGQTVTTPLSLTLGHWKDVERIAHNQSVDVKKRRWVTFCSAEWPTFNVGWPRDGTFNRDLITQVKIKVFSPGPHGHPDQVPYIVTWEALAFDPPPWVKPFVHPKPPPPLPPSAPSLPLEPPRSTPPRSSLYPALTPSLGAKPKPQVLSDSGGPLIDLLTEDPPPYRDPRPPPSDRDGNGGEATPAGEAPDPSPMASRLRGRREPPVADSTTSQAFPLRAGGNGQLQYWPFSSSDLYNWKNNNPSFSEDPGKLTALIESVLITHQPTWDDCQQLLGTLLTGEEKQRVLLEARKAVRGDDGRPTQLPNEVDAAFPLERPDWDYTTQAGRNHLVHYRQLLLAGLQNAGRSPTNLAKVKGITQGPNESPSAFLERLKEAYRRYTPYDPEDPGQETNVSMSFIWQSAPDIGRKLERLEDLKNKTLGDLVREAEKIFNKRETPEEREERIRRETEEKEERRRTEDEQKEKERDRRRHREMSKLLATVVSGQKQDRQGGERRRSQLDRDQCAYCKEKGHWAKDCPKKPRGPRGPRPQTSLLTLDD
B3: Gag polyprotein (Moloney murine leukemia virus (isolate Shinnick) (MoMLV)), P03332 (parent)
chain: B2 chain
partner: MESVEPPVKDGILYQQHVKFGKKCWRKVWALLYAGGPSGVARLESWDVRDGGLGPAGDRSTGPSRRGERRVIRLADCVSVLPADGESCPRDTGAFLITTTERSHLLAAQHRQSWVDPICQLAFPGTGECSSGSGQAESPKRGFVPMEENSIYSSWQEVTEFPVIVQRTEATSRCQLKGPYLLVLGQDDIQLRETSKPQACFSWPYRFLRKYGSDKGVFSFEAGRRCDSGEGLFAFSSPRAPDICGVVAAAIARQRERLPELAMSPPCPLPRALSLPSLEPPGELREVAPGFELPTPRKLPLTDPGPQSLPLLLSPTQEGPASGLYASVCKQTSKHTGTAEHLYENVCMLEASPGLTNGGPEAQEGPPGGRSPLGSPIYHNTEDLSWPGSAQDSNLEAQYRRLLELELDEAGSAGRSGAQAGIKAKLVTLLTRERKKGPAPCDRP

In one test the parent is B1. The following applies: with gag_mlvms gag.
Consider N1514A;S1515A;K1516A, for which the “effect of a mutation on the interaction” value is reported as “disrupting interaction”.

Variants of B2 are the subject of another test. The following applies: with iqga1_mouse Iqgap1, Q9JKF1.
Q63A;V64A;K65A: the “effect of a mutation on the interaction” value is reported as “disrupting interaction”.

Another test covers variants of B2. The following applies: with iqga1_mouse Iqgap1, Q9JKF1. This is another data set of the same source.
Consider L60A;I61A;T62A, for which the “effect of a mutation on the interaction” value is “disrupting interaction”.

In another test the parent is B3. The conditions noted are these: with dok3_mouse Dok3, Q9QZK7.
With L89A;F91A;D92A, the “effect of a mutation on the interaction” value is recorded as “disrupting interaction”.

The variants in another test derive from B3. The conditions noted are these: with dok3_mouse Dok3, Q9QZK7. This is another data set of the same source.
With G72A;P73A;H74A, the “effect of a mutation on the interaction” value was “disrupting interaction”.

The variants in another test derive from B3. The following applies: with dok3_mouse Dok3, Q9QZK7. This is another data set of the same source.
Turning to F69A;S70A;P71A, the “effect of a mutation on the interaction” value is on record as “disrupting interaction”.
